Results from PMC3509150 (2012).

Biological target: HIV-1 capsid protein (CA), full-length (HIV-1, UniProt P12493 133-363)

B1: CANTDcb1 nanobody with C-terminal 6xHis-tag, purified (VHH)
VHH: QVQLVESGGGLVQAGGSLRLSCAASGYFSSYAMGWFRQAPGKEREFVAAISWIESTTDYADSVKGRFTISRDNAKKTLHLQMNSLKPEDTAVYYCAACDIPFGQAFCALYDYWGQGTQVTVSS
koff: 0.00012 s⁻¹
